Assay results as given in patent publication US20180230213A1 (AVEO PHARMACEUTICALS, published 2018).

What was measured:
Experiment in all cases: BLI (Octet QK): rhNotch3 on the sensor, IgG in place of a Notch3 antibody, then the ligand in solution
rhJag2-Fc = target: T1, rhJag2-Fc (human, UniProt Q9Y219 27-1080, limits assumed)
T1 construct: also called R&D Cat. No. 1726-JG-050
Experimental: (§1) The 4F11 antibody was tested for its ability to inhibit the binding of rhNotch3 binding to human Jag1, Jag2, DLL1 and DLL4. Binding measurements were made by bio-layer interferometry (BLI), using a FortéBio Octet® QK instrument (ForteBio, Menlo Park, Calif.). The ligands tested were rhJag1-Fc (R&D Cat. No. 1277-JG-050), rhJag2-Fc (R&D Cat. No. 1726-JG-050), rhDLL1-Fc (R&D Cat. No. 5026-DL-050), and His tagged rhDLL4 (R&D Cat. No. 1506-D4-050).
(§2) To determine the degree of inhibition of Notch3-ligand binding by antibody 4F11, the Octet sensors were loaded with recombinant human Notch3, and the antibody was allowed to bind, as described in Example 4. In positive control samples, a commercially available Notch3 polyclonal antibody capable of blocking ligand binding to recombinant human Notch3 (Notch3 Specific Control) was used instead of the 4F11 antibody. Then sensors were immersed in 500 ug/ml human IgG, to block non-specific binding. Ligands were prepared at a concentration of 400 nM in PBS containing 3% BSA, and were allowed to bind. The on-rate and off-rate for ligand binding were detected using the Octet QK instrument and software. The 4F11 antibody blocked binding of all four ligands to rhNotch3-Fc (FIG. 5A-5D).

His tagged rhDLL4 = target: T2, His tagged rhDLL4 (human, UniProt Q9NR61 27-524)
T2 construct: also called R&D Cat. No. 1506-D4-050
Experimental: as §1, §2

rhJag1-Fc = target: T3, rhJag1-Fc (human, UniProt P78504 32-1046, limits assumed)
T3 construct: also called R&D Cat. No. 1277-JG-050
Experimental: as §1, §2

Measured: binding result

T2 sequence (Q9NR61 27-524 limits assumed): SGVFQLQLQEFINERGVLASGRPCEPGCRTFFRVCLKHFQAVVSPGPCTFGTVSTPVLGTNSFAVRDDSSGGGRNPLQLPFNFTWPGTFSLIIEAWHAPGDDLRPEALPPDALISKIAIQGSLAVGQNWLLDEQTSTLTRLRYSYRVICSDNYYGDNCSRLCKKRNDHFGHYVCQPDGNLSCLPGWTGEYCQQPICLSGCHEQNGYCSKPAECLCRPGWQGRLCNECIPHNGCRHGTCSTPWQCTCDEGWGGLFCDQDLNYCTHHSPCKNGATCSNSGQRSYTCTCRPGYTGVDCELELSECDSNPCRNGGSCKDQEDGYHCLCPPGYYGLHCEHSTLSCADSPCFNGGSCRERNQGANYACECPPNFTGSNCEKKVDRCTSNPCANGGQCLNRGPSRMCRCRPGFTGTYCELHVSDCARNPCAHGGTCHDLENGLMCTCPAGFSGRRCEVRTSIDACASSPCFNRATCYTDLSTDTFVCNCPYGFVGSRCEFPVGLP
T1 sequence (Q9Y219 27-1080 limits assumed): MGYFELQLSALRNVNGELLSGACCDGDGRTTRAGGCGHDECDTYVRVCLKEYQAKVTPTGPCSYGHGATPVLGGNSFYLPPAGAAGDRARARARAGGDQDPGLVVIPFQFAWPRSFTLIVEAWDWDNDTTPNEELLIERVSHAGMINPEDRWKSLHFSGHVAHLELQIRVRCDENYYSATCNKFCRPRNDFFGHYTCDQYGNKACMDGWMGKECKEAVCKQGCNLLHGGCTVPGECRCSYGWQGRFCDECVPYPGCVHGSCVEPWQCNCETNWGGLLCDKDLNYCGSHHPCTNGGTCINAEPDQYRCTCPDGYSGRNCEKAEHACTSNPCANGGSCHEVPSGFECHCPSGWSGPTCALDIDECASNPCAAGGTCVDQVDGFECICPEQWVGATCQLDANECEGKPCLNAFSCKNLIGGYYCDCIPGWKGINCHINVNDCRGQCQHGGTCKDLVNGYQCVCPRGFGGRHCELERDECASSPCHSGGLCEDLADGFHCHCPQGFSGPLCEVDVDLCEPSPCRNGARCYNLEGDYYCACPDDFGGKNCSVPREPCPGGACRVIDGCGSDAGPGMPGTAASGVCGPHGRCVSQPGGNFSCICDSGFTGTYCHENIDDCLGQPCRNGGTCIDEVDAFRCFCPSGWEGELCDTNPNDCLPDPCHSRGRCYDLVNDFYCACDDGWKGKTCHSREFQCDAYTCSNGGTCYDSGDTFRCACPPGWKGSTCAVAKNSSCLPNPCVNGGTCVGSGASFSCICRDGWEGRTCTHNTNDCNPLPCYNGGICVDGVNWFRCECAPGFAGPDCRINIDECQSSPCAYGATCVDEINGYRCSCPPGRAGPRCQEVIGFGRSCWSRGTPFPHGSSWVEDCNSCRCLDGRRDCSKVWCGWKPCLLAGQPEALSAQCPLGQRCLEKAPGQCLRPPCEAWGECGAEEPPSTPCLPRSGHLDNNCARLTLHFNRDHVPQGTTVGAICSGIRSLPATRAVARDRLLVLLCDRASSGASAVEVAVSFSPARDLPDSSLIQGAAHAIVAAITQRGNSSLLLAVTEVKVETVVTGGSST

B1: recombinant human Notch3 extracellular domain (containing EGF like domains 1-11) Fc fusion protein (Fc fusion, UniProt Q9UM47 40-467, looked up, not shown: a dimerising Fc or GST)
chain: APPCLDGSPCANGGRCTQLPSREAACLCPPGWVGERCQLEDPCHSGPCAGRGVCQSSVVAGTARFSCRCPRGFRGPDCSLPDPCLSSPCAHGARCSVGPDGRFLCSCPPGYQGRSCRSDVDECRVGEPCRHGGTCLNTPGSFRCQCPAGYTGPLCENPAVPCAPSPCRNGGTCRQSGDLTYDCACLPGFEGQNCEVNVDDCPGHRCLNGGTCVDGVNTYNCQCPPEWTGQFCTEDVDECQLQPNACHNGGTCFNTLGGHSCVCVNGWTGESCSQNIDDCATAVCFHGATCHDRVASFYCACPMGKTGLLCHLDDACVSNPCHEDAICDTNPVNGRAICTCPPGFTGGACDQDVDECSIGANPCEHLGRCVNTQGSFLCQCGRGYTGPRCETDVNECLSGPCRNQATCLDRIGQFTCICMAGFTGTYCE
notes: domain: EGF like domains 1-11; also called rhNotch3-Fc; rhNotch3
binds: rhJag2-Fc | His tagged rhDLL4 | rhJag1-Fc
